The values that follow come from US20160031986A1.

B1: h1A11.2 (antibody, V domains shown)
VH: EVQLVESGGGLVQPGGSLRLSCAASGFTFSNFPMAWVRQAPGKGLEWVATISSSDGTTYYRDSVKGRFTISRDNAKNSLYLQMNSLRAEDTAVYYCARGYYNSPFAYWGQGTLVTVSS
VL: DIQMTQSPSSLSASVGDRVTITCRASEDIYSNLAWYQQKPGKSPKLLIFDTNNLADGVPSRFSGSGSGTDSTLTISSLQPEDFATYFCQQYNNYPPTFGQGTKLEIKR
B2: h1A11.7 (antibody, V domains shown)
VH: EVQLVESGGGLVQPGGSLRLSCAASGFTFSNFPMAWVRQAPGKGLEWVATISSSDGTTYYRDSVKGRFTISRDNAKSSLYLQMNSLRAEDTAVYYCSRGYYNSPFAYWGQGTLVTVSS
VL: DIQMTQSPSSLSASVGDRVTITCRASEDIYSNLAWYQQKPGKAPKLLIFDTNNLADGVPSRFSGSGSGTDFTLTISSLQPEDFATYYCQQYNNYPPTFGQGTKLEIKR
B3: h1A11.8 (antibody, V domains shown)
VH: EVQLVESGGGLVQPGGSLRLSCAASGFTFSNFPMAWVRQAPGKGLEWVATISSSDGTTYYRDSVKGRFTISRDNAKSSLYLQMNSLRAEDTAVYYCSRGYYNSPFAYWGQGTLVTVSS
VL: EIVMTQSPATLSVSPGERATLSCRASEDIYSNLAWYQQKPGQSPRLLIFDTNNLADGVPARFSGSGSGTESTLTISSLQSEDFAVYFCQQYNNYPPTFGQGTKLEIKR
B4: h1A11.3 (antibody, V domains shown)
VH: EVQLVESGGGLVQPGGSLRLSCAASGFTFSNFPMAWVRQAPGKGLEWVATISSSDGTTYYRDSVKGRFTISRDNAKNSLYLQMNSLRAEDTAVYYCARGYYNSPFAYWGQGTLVTVSS
VL: DIQMTQSPSSLSASVGDRVTITCRASEDIYSNLAWYQQKPGKAPKLLIFDTNNLADGVPSRFSGSGSGTDFTLTISSLQPEDFATYYCQQYNNYPPTFGQGTKLEIKR
B5: h1A11.5 (antibody, V domains shown)
VH: EVQLVESGGGLVQPGGSLRLSCAASGFTFSNFPMAWVRQAPGKGLEWVATISSSDGTTYYRDSVKGRFTISRDNAKSSLYLQMNSLRAEDTAVYYCSRGYYNSPFAYWGQGTLVTVSS
VL: DIQMTQSPSSLSASVGDRVTITCRASEDIYSNLAWYQQKPGKAPKLLIYDTNNLADGVPSRFSGSGSGTDFTLTISSLQPEDFATYYCQQYNNYPPTFGQGTKLEIKR
B6: h1A11.4 (antibody, V domains shown)
VH: EVQLVESGGGLVQPGGSLRLSCAASGFTFSNFPMAWVRQAPGKGLEWVATISSSDGTTYYRDSVKGRFTISRDNAKNSLYLQMNSLRAEDTAVYYCARGYYNSPFAYWGQGTLVTVSS
VL: EIVMTQSPATLSVSPGERATLSCRASEDIYSNLAWYQQKPGQSPRLLIFDTNNLADGVPARFSGSGSGTESTLTISSLQSEDFAVYFCQQYNNYPPTFGQGTKLEIKR
B7: h1A11.6 (antibody, V domains shown)
VH: EVQLVESGGGLVQPGGSLRLSCAASGFTFSNFPMAWVRQAPGKGLEWVATISSSDGTTYYRDSVKGRFTISRDNAKSSLYLQMNSLRAEDTAVYYCSRGYYNSPFAYWGQGTLVTVSS
VL: DIQMTQSPSSLSASVGDRVTITCRASEDIYSNLAWYQQKPGKSPKLLIFDTNNLADGVPSRFSGSGSGTDSTLTISSLQPEDFATYFCQQYNNYPPTFGQGTKLEIKR
B8: 1A11 rat monoclonal antibody (antibody, V domains shown)
VH: EVQLVESGGGLVQPGRSMKLSCAASGFTFRNFPMAWVRQAPTRGLEWVATISSSDGTTYYRDSVKGRFTISRDNAKSTLYLQVNSLRSEDTATYYCSRGYYNSPFAYWGQGTLVTVSS
VL: DIQMTQSPASLSASLGETVTIECRASEDIYSNLAWYQQKPGNSPQLLIFDTNNLADGVPSRFSGSGSGTQSSLKINSLQSEDVASYFCQQYNNYPPTFGGGTKLELKR
B9: 37D10 rat monoclonal antibody (antibody, V domains shown)
VH: AVQLVESGGGLVQPKESLKISCAASGFTFSNAAMYWVRLAPGKGLEWVARIRTKPNNYATYYAESVKGRFTISRDDSKSMVYVQMDNLKTEDTAMYYCTAAPWRDSYAHVYWGQGVMVTVSS
VL: DIQMTQSPPVLSASVGDRVTLSCKASQNIHKNLDWYQQKHGDAPKLLIYYTDHLQTGVPSRFSGSGSATDYTLTISSLQPEDVATYYCYQYNGGPFTFGSGTKLEIKR
B10: 38H12 rat monoclonal antibody (antibody, V domains shown)
VH: EVQLVESGGGLVQPGRSLKLSCAASGFTFSNYGMYWIRQAPTKGLQWVAFISHGGGITYYRDSVKGRFTISRDNAKSTLYLQMDSLRSEDTATYHCAALNWELGIDYWGQGVMVTVSS
VL: DIQMTQSPASLSASLGETISIECRASEDIYSNLAWYQKKSGKSPQLLIYAANRLQDGVPSRFSGSGSGTQYSLKISGMQPEDEGDYFCLQGSKFPLTFGSGTKLEIKR
B11: 15D6 rat monoclonal antibody (antibody, V domains shown)
VH: EVQLQQSGPELAKPGSSVKISCKASGYTFTSSYISWIKQTTGQGLEYIGYINTGSGGTDYNEKFKDKATLTVDKSSRTVFMQLSSLTPGDSAVYYCAKSILLGSTYYLDYWGQGVMVTVSS
VL: DTVLTQSPALAVSLGQRVTISCKASRSLSSPMYSYIYWYQQKLGQQPRLLIYRASTLASGVPARFSGSGSGTDFTLNIDPVEADDIATYFCQQSWSDPFTFGSGTKLEIKR
B12: 14A11 rat monoclonal antibody (antibody, V domains shown)
VH: EVQLQQSGPELAKPGSSVKISCKASGYTFTNSYISWIKQTTGQGLEYVGYINTGSGGADYNEKFKGKATLTVDKSSRTAFMQLSSLTPGDSAVYYCAKSILLGSTCYFDYWGQGVLVTVSS
VL: NTVLTQSPALAVSLGQRVTISCKASRSVSSPMYSYIYWYQQKPGQQPKLLIYRASTLASGVPARFSGSGSGTDFTLNIDPVEADDIATYFCQQSWSDPFTFGSGTKLEIKR
B13: 32C7 rat monoclonal antibody (antibody, V domains shown)
VH: EVQLVESGGGLVQPGRSLKLSCLASGFPFSSVWMTWIRQAPGKGLEWIATITNSGASTYYSASVKGRFTISRDNVKSTLYLQMTSLGSEDTATYYCTRVGTSFDYWGQGVMVTVSS
VL: DIQMTQSPASLSASLGETVTIECRASDDIYNGLAWFQQKPGKSPQLLIYDANTLHTGVPSRFSGSGSGTQFSLKINSLQSEDVASYFCQQFYDYPPYTFGAGTKLELKR
B14: 14G1 rat monoclonal antibody (antibody, V domains shown)
VH: EVQLQQSGAELAKPGSSVKISCKASGYTFTNYDISWIKQTNGQGLEYLGYINTGSGGIYSNEKFKGKATLTVDKSSNTAFMQLSSLTPEDTAVYYCVREGNNFDHWGQGVKVTVSS
VL: DTVMTQSPASMSTSVGERVTVNCKASQSVGTIVAWFQQKPGQSPKRLIYLATYRHTGVPDRFIGSGFGRDFTLTISNVEAEDLAVYYCLQYGSRPFTFGAGTKLEIKR

The first assay concerns the target cynomolgus monkey DLL4 extracellular domain (cynomolgus monkey). The assay is described as follows: binding ELISA.
As to B1, the EC50 (commonly the concentration giving half of the maximal effect) came to 0.13 nM.
On the same count and under the same terms, in the case of B2 it was 0.14 nM; in that of B3, 0.17 nM.
On the same count and under the same terms, then B4, with 0.16 nM.
Still for that read-out and setting: in the case of B5 it was 0.16 nM; in that of B6, 0.17 nM; in that of B7, 0.13 nM.

For another assay the target is unchanged. The experiment in a line: Biacore SPR. Background: SPR reads the build-up and loss of mass on a sensor chip optically.
Consider B8, for which the Kd (as a rule, the equilibrium constant for the complex coming apart) was 8.1 nM; the koff (usually the first-order rate constant of dissociation) stood at 0.00093 s⁻¹; the kon – broadly, a measure of how fast the partners come together – is 110000 M⁻¹ s⁻¹.
Take B9: the Kd is under 617 nM and the kon is 40000 M⁻¹ s⁻¹.
In turn, B10 came in with a Kd of 0.4 nM, a koff of 9.8e-05 s⁻¹ and a kon of 260000 M⁻¹ s⁻¹.
In the same order, the values of B11 are 14.9 nM, 0.00083 s⁻¹ and 56000 M⁻¹ s⁻¹.
In the same order, the values of B12 are 11.6 nM, 0.0012 s⁻¹ and 110000 M⁻¹ s⁻¹.
In the same order, the values of B13 are 0.03 nM, 6.3e-06 s⁻¹ and 220000 M⁻¹ s⁻¹.
The molecule B14 returned a Kd of 10.5 nM, a koff of 0.00041 s⁻¹ and a kon of 39000 M⁻¹ s⁻¹.
